Test results as given in the supplement of paper PMC10567573.
± gives the standard deviation.

Test: protein stability index of a GFP-peptide fusion (GPS, HEK-293T) (PSI 1-6); higher = more stable
[1] = treatment: DMSO, c terminus: a fixed tail appended
[2] = treatment: MLN4924 1 uM, 8 h, c terminus: a fixed tail appended
[3] = treatment: DMSO, c terminus: native
[4] = treatment: MLN4924 1 uM, 8 h, c terminus: native
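Also: 24-mer peptide tiles fused after GFP, lentivirally expressed, FACS-sorted into six equal bins by GFP/DsRed ratio, decoded by Illumina sequencing, PSI is the read-weighted mean bin number.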

Row | Sequence | protein stability index [1] | protein stability index [2] | protein stability index [3] | protein stability index [4]
1 | LARKGSLKNGSMGSPVNQQPKKNN [FAM219A] | 4.85 ± 0.25 | 4.77 ± 0.065 | – | –
2 | HRRFCELLPQEQRSVESSLRAQVP [CIB1] | 3.63 ± 0.13 | 3.66 ± 0.15 | – | –
3 | AEDWFFSKTEELNREVATNSELVQ [KRT17] | 4.87 ± 0.2 | 4.84 ± 0.07 | – | –
4 | SQDVSDCYLELFPAHLYFQAHGSE [PLEKHN1] | 2.49 ± 0.19 | 2.81 ± 0.4 | – | –
5 | AADGPTVCCNPYHFSRLCGPESPP [SMAD6] | 3.65 ± 0.11 | 3.76 ± 0.24 | – | –
6 | GPRRLVSCLSSQSSALSQSGGGST [SPACA3] | 3.81 ± 0.22 | 4 ± 0.19 | – | –
7 | LCKSVLEIERAIKQTQCPADPLQL [FEM1C] | 3.17 ± 0.13 | 3.11 ± 0.26 | – | –
8 | VNVEMDAAPGVDLTRVLAEMREQY [KRT15] | 3.13 ± 0.42 | 3.27 ± 0.31 | – | –
9 | EVDAAPPVDLNKILEDMRCQYEAL [KRT36] | 4.59 ± 0.13 | 4.68 ± 0.096 | – | –
10 | SALPLAPNHLGGGAVVLGAESHAS [STX5] | 4.22 ± 0.32 | 4.32 ± 0.53 | – | –
11 | AGGTSDDPEPSGPHLPRVMLPGVL [SCNN1D] | 4.14 ± 0.21 | 4.16 ± 0.13 | – | –
12 | KKNHEEEMKEFSSQLAGQVNVEMD [KRT15] | 5.6 ± 0.12 | 5.59 ± 0.23 | – | –
13 | TNITEVDAASVYTLPAGADFLMCY [CASP6] | 2.35 ± 0.34 | 2.18 ± 0.25 | – | –
14 | QVLEMKNQQIHEQEKKILELEKLA [MTUS2] | 4.68 ± 0.31 | 4.62 ± 0.45 | – | –
15 | KIWLVVPSLLELAWEKLLAAFPNL [KLHDC10] | 2.84 ± 0.16 | 2.73 ± 0.11 | – | –
16 | QNLYFNCSSPGVQACSLPASCCID [TSPAN10] | 3.12 ± 0.22 | 3.25 ± 0.2 | – | –
17 | NLRYGFTKEVMNKYKVHGKEILRT [PPEF2] | 2.63 ± 0.3 | 2.57 ± 0.31 | – | –
18 | ETVDLVLKLKNKLLQADREHLPVK [DENND6A] | 2.86 ± 0.41 | 2.72 ± 0.38 | – | –
19 | LESELLRGTQYSSLDSLDGLSLTD [PSD2] | 4.53 ± 0.22 | 4.73 ± 0.21 | – | –
20 | AILFTRQDLCGVSTCDTLGMADVG [ADAMTS4] | 1.8 ± 0.28 | 2.66 ± 0.22 | – | –
21 | GAYDFPSPEWDTVTPEAKDLINKM [CAMK2D] | 4.536 ± 0.038 | 4.07 ± 0.093 | – | –
22 | SRILKKTVYNEMDKNRCELLSFLL [EDNRA] | 2.14 ± 0.67 | 1.96 ± 0.36 | – | –
23 | SLGRHKRTHTGEKPYTCSVCGKSF [ZNF8] | 3.2 ± 0.58 | 3.69 ± 0.6 | – | –

Row | Sequence | protein stability index [1] | protein stability index [2] | protein stability index [3] | protein stability index [4]
24 | SCTTRLCQEEQLRSHENKLRQLTA [PSD2] | 3.6 ± 0.22 | 3.79 ± 0.33 | – | –
25 | SGPPASYCAKLCEPQWFYEETESS [C8orf76] | 4.02 ± 0.12 | 4.37 ± 0.19 | – | –
26 | PVFNAMFEHEMEESKKNRVEINDL [SPOPL] | 4.26 ± 0.32 | 4.69 ± 0.21 | – | –
27 | ERPYGCDECEKAYFYMSCLVKHKR [ZNF649] | 2.48 ± 0.16 | 2.81 ± 0.28 | – | –
28 | PGGPGAMTESLEASEFLEQSMSQT [RSPH3] | 5.27 ± 0.28 | 5.16 ± 0.17 | – | –
29 | SLCCCCRWCCCCGERETRTPEELT [CLCN6] | 3.66 ± 0.41 | 3.88 ± 0.22 | – | –
30 | ALIICYNWLHRRLAGQFLEELRKF [MOG] | 2.64 ± 0.65 | 2.47 ± 0.57 | – | –
31 | DGASQDCPPLPAGVSFHIDSAELE [FBXO34] | 5.39 ± 0.14 | 5.4 ± 0.16 | – | –
32 | YQLLATHVPTVWAIDQYRVCQEVL [RHOBTB1] | 2.61 ± 0.59 | 2.38 ± 0.47 | – | –
33 | VLQDRAAKGSLGTQIGFADLMGVL [FEM1A] | 2.15 ± 0.31 | 2.22 ± 0.35 | – | –
34 | TSLKTKFPAEQYYRFHEHWRFVLQ [TSN] | 2.34 ± 0.19 | 2.54 ± 0.16 | – | –
35 | GVGGWRDYGVDPSQFSGTLMRTCE [PPTC7] | 2.81 ± 0.36 | 3.28 ± 0.74 | – | –
36 | VLPHVPLGVIQRDLAKTGCVDLTI [AUP1] | 2.14 ± 0.25 | 2.37 ± 0.37 | – | –
37 | EEAEGARWTSYRFSRVCRLHRGQL [TRIM35] | 2.91 ± 0.23 | 3 ± 0.08 | – | –
38 | WRWQLYAAQSTKSPWNFLGDELYE [CLPTM1] | 2.79 ± 0.38 | 2.39 ± 0.3 | – | –
39 | ESWDEEDKRNYPSLELDKMAHGYG [CHGB] | 4.87 ± 0.1 | 4.87 ± 0.14 | – | –
40 | EHACTVRNLARSQSVKMKDKLKID [TAF7L] | 4.75 ± 0.18 | 4.81 ± 0.2 | – | –
41 | QIQEFKEAFTLMDQNRDGFIDKED [MYL5] | 5.12 ± 0.26 | 5.19 ± 0.32 | – | –
42 | EMPTQPGKPLIPPMNRRNILVMKH [NETO1] | 3.21 ± 0.045 | 3.27 ± 0.24 | – | –
43 | WASRREAFAQRPSSAPDLMCLSPD [CDC25B] | 3.85 ± 0.21 | 4.07 ± 0.2 | – | –
44 | SNGVEMAAKFPSGSQRARVVNTDH [SDE2] | 4.59 ± 0.2 | 4.58 ± 0.26 | – | –
45 | GSILQFNPEVGIFVSIAQSEQESL [SMG5] | 3.07 ± 0.38 | 2.92 ± 0.18 | – | –
46 | EALNERHSIINALKAKLQMTEAAL [LRRC45] | 2.66 ± 0.2 | 2.91 ± 0.3 | – | –

Row | Sequence | protein stability index [1] | protein stability index [2] | protein stability index [3] | protein stability index [4]
47 | HRLLNMARNNNDPGRLTEALCLEV [RNF180] | 3.89 ± 0.33 | 3.96 ± 0.28 | – | –
48 | MEAYLPKKNGLYLSLVLGNVNVTL [TMEM120A] | 3.28 ± 0.49 | 3.44 ± 0.35 | – | –
49 | PALKIYEYHVKPLQTKHLKNNSS [SAMD13] | – | – | 3 ± 0.15 | 3.04 ± 0.2
50 | GSAGGLGSTLGGSSYSSCYSFGSG [KRT17] | 3.29 ± 0.13 | 3.43 ± 0.33 | – | –
51 | HPAFLPQRQAIKGAFYRRAQRLRP [KCNG1] | 3.32 ± 0.37 | 3.58 ± 0.33 | – | –
52 | ETCDLGKIKPEARRYLEKSIKMGK [NLN] | 4.09 ± 0.18 | 4.45 ± 0.23 | – | –
53 | CAFLLLRLLVGLALATLRVLRGLA [TMEM175] | 3.56 ± 0.37 | 3.35 ± 0.086 | – | –
54 | SSDKVRGIETLESVPIIGGFWETI [PHTF1] | 2.56 ± 0.32 | 2.65 ± 0.31 | – | –
55 | ARKAMRNGISPIIIDNTNLHAWEM [N4BP2L1] | 2.33 ± 0.25 | 2.25 ± 0.42 | – | –
56 | EDHKPGTFPKALTNGSFSPSGNNG [DLC1] | 4.89 ± 0.11 | 4.91 ± 0.37 | – | –
57 | VKISDFGLAKCNGLSHSHDLSMDG [RIPK4] | 2.95 ± 0.42 | 3.23 ± 0.37 | – | –
58 | SIKNSLKVAAISESPVAEKSAST [PTGFR] | – | – | 4.5 ± 0.14 | 4.27 ± 0.2
59 | GAAFRDHQLLEPIRDFEARKCPVH [TRIM29] | 3.73 ± 0.26 | 3.88 ± 0.17 | – | –
60 | RSVRVRLLLSFWKETDPLTFNFIS [PLD5] | 2.89 ± 0.71 | 2.54 ± 0.18 | – | –
61 | HLVPVIEMWADQLTSLKDLYKSLK [CEP70] | 2.47 ± 0.5 | 2.32 ± 0.39 | – | –
62 | PIHTIILNPHVHLVGDDAACIAYI [CAMK2D] | 2 ± 0.45 | 3.12 ± 1.6 | – | –
63 | LRIRSVEGRKKAFSTCGSHLTVVA [OR3A1] | 2.43 ± 0.42 | 2.2 ± 0.47 | – | –
64 | FQIAANLSMERYALVFGVNTFIAL [SLC19A2] | 3.2 ± 0.18 | 3.09 ± 0.17 | – | –
65 | HQGEEEGPLDIWAVVKPGNTKEKI [FBXO34] | 4.6 ± 0.15 | 4.76 ± 0.27 | – | –
66 | LIQDGNPMENLEKQLICPICLEMF [TRIM63] | 2.87 ± 0.58 | 2.97 ± 0.54 | – | –
67 | TIDAVPNAIPGRTDIELEIYGMEG [ZNF207] | 3.86 ± 0.27 | 4 ± 0.093 | – | –
68 | KERKLECLPPEPSPDDPESVKIIF [FAF2] | 3.97 ± 0.22 | 4.04 ± 0.16 | – | –
69 | SKYHRFISFTLYLIGFCMFVLSLV [CDS2] | 2.04 ± 0.36 | 1.86 ± 0.51 | – | –

Row | Sequence | protein stability index [1] | protein stability index [2] | protein stability index [3] | protein stability index [4]
70 | ETETLVTREAVTEILGIEPDREKG [TSN] | 5.5 ± 0.19 | 5.39 ± 0.33 | – | –
71 | EMYQVSRLQHICELFIITQLQSMP [RHOBTB3] | 2.21 ± 0.23 | 2.16 ± 0.44 | – | –
72 | VDATLEHVQDPQNTVKVQVLYPDG [INTS4] | 4.37 ± 0.12 | 4.49 ± 0.15 | – | –
73 | LESSYNDEMLSYLPGGTTGLQLPS [TFE3] | 3.94 ± 0.18 | 3.88 ± 0.27 | – | –
74 | CPEVKLKTTGLEEAAEAETAKDNG [SRPK2] | 5.5 ± 0.27 | 5.49 ± 0.26 | – | –
75 | KDVSRCVAERKYTQEQARKEFQQV [SMOC2] | 4.49 ± 0.16 | 4.51 ± 0.38 | – | –
76 | LFEEPAPQALATRALPCPAHVVFR [FCHSD1] | 3.13 ± 0.16 | 3.21 ± 0.19 | – | –
77 | PHVCSLCGKAFYKKYRLTEHERAH [ZNF649] | 4.54 ± 0.24 | 4.66 ± 0.55 | – | –
78 | HAFPVVTENRGNEKEFMKGNQLIS [CLCN6] | 4.08 ± 0.078 | 4.12 ± 0.067 | – | –
79 | EEYPGITAEDSNDIYILPSDNSGQ [BCL2L13] | 5.25 ± 0.18 | 5.14 ± 0.21 | – | –
80 | YSKTFQRSNVDFLETPELTSTMLV [NECAB1] | 2.18 ± 0.37 | 2.39 ± 0.35 | – | –
81 | GLAYDRKKVSKAAILARIKRTGDG [SCD] | 3.27 ± 0.24 | 3.63 ± 0.35 | – | –
82 | GGKRRRDDISVDSLDFTKKILHTA [PPP2R2C] | 3.17 ± 0.21 | 3.77 ± 0.36 | – | –
83 | ITTDNLQCRERREHPNLVRDHVET [TEKT4] | 4.35 ± 0.085 | 4.44 ± 0.17 | – | –
84 | QGEICLCTSRIFVQKSIYSEFLKR [ALDH8A1] | 2.29 ± 0.64 | 2.06 ± 0.49 | – | –
85 | PAQLSEDITRYYLCLQLRDDIVSG [EPB41L3] | 2.3 ± 0.24 | 2.43 ± 0.35 | – | –
86 | PMDVYETGIEYIVAQGPTNQGLNV [ADAMTSL2] | 3.19 ± 0.68 | 3.54 ± 0.39 | – | –
87 | QFSSRDCTRPVPRNGGKYCEGRRT [ADAMTS4] | 4.22 ± 0.47 | 4.51 ± 0.55 | – | –
88 | GGPFPLPYTAPGGYLDVGSKPMY [TBX6] | – | – | 3.12 ± 0.43 | 3.43 ± 0.2
89 | ESIAHIGDVMFTGTADGRVVKLEN [APMAP] | 4.11 ± 0.17 | 4.38 ± 0.19 | – | –
